The values that follow come from patent publication US20240279318A1 (NANJING LEGEND BIOTECH, published 2024).

B1: LD97I (scFv)
scFv: QSALTQPRSVSGSPGQSVTISCAGTSSDVGSENYVSWYQQHPGKAPKLMIYQVNKRASGVPDRFSGSKSGNTASLTISGLQAEDEADYYCASYRSSIHNIVFGGGTKLTVLGGGGSGGGGSGGGGSEVQLVESGGGLVQPGGSLRLSCAASGFTFSSYAMSWVRQAPGKGLEWVSTINSGTGSPYYADSVKGRFTISRDNSKNTLYLQMNSLRAEDTAVYYCAKNFFDGSWFLGPPAMDYWGQGTLVTVSSHHHHHH
notes: AS170036 VL1VH1 scFv mutein
B2: LD97E (scFv)
scFv: B1 scFv with I97E
notes: AS170036 VL1VH1 scFv mutein
B3: LD97V (scFv)
scFv: B1 scFv with I97V
notes: AS170036 VL1VH1 scFv mutein
B4: LD97Q (scFv)
scFv: B1 scFv with I97Q
notes: AS170036 VL1VH1 scFv mutein
B5: LD97P (scFv)
scFv: B1 scFv with I97P
notes: AS170036 VL1VH1 scFv mutein
B6: LD97M (scFv)
scFv: B1 scFv with I97M
notes: AS170036 VL1VH1 scFv mutein
B7: LD97L (scFv)
scFv: B1 scFv with I97L
notes: AS170036 VL1VH1 scFv mutein
B8: AS170036 VL1VH1 HP58G (scFv)
scFv: B1 scFv with I97D, P184G
B9: AS170036 VL1VH1 HP110A (scFv)
scFv: B1 scFv with I97D, P236A
B10: AS170036 VL1VH1 HP109N (scFv)
scFv: B1 scFv with I97D, P235N
B11: AS170036 VL1VH1 HP109T (scFv)
scFv: B1 scFv with I97D, P235T
B12: AS170036 VL1VH1 HP58T (scFv)
scFv: B1 scFv with I97D, P184T
B13: AS170036 VL1VH1 HS57D (scFv)
scFv: B1 scFv with I97D, S183D
B14: AS170036 VL1VH1 HW105M (scFv)
scFv: B1 scFv with I97D, W231M
B15: AS170036 VL1VH1 HP110V (scFv)
scFv: B1 scFv with I97D, P236V
B16: AS170036 VL1VH1 HS57T (scFv)
scFv: B1 scFv with I97D, S183T
B17: AS170036 VL1VH1 HP58Y (scFv)
scFv: B1 scFv with I97D, P184Y
B18: AS170036 VL1VH1 HS57N (scFv)
scFv: B1 scFv with I97D, S183N
B19: AS170036 VL1VH1 HP58Q (scFv)
scFv: B1 scFv with I97D, P184Q
B20: AS170036 VL1VH1 HS57Y (scFv)
scFv: B1 scFv with I97D, S183Y
B21: AS170036 VL1VH1 HP110Q (scFv)
scFv: B1 scFv with I97D, P236Q
B22: AS170036 VL1VH1 HS57A (scFv)
scFv: B1 scFv with I97D, S183A
B23: AS170036 VL1VH1 HP58R (scFv)
scFv: B1 scFv with I97D, P184R
B24: AS170036 VL1VH1 HP110G (scFv)
scFv: B1 scFv with I97D, P236G
B25: AS170036 VL1VH1 HP58H (scFv)
scFv: B1 scFv with I97D, P184H
B26: AS170036 VL1VH1 HP110I (scFv)
scFv: B1 scFv with I97D, P236I
B27: AS170036 VL1VH1 HP110L (scFv)
scFv: B1 scFv with I97D, P236L
B28: AS170036 VL1VH1 HP58W (scFv)
scFv: B1 scFv with I97D, P184W
B29: AS170036 VL1VH1 HP110D (scFv)
scFv: B1 scFv with I97D, P236D
B30: AS170036 VL1VH1 HS57F (scFv)
scFv: B1 scFv with I97D, S183F
B31: AS170036 VL1VH1 HP58M (scFv)
scFv: B1 scFv with I97D, P184M
B32: AS170036 VL1VH1 HS53T (scFv)
scFv: B1 scFv with I97D, S179T
B33: AS170036 VL1VH1 HP110S (scFv)
scFv: B1 scFv with I97D, P236S
B34: AS170036 VL1VH1 HP58N (scFv)
scFv: B1 scFv with I97D, P184N
B35: AS170036 VL1VH1 HP110T (scFv)
scFv: B1 scFv with I97D, P236T
B36: AS170036 VL1VH1 HP110N (scFv)
scFv: B1 scFv with I97D, P236N
B37: AS170036 VL1VH1 HW105F (scFv)
scFv: B1 scFv with I97D, W231F
B38: AS170036 VL1VH1 HS53A (scFv)
scFv: B1 scFv with I97D, S179A
B39: AS170036 VL1VH1 HP58V (scFv)
scFv: B1 scFv with I97D, P184V
B40: AS170036 VL1VH1 HP58S (scFv)
scFv: B1 scFv with I97D, P184S
B41: AS170036 VL1VH1 HP110E (scFv)
scFv: B1 scFv with I97D, P236E
B42: AS170036 VL1VH1 HP58K (scFv)
scFv: B1 scFv with I97D, P184K
B43: AS170036 VL1VH1 HP109A (scFv)
scFv: B1 scFv with I97D, P235A
B44: AS170036 VL1VH1 HS57W (scFv)
scFv: B1 scFv with I97D, S183W

Residue numbers refer to the chain shown, from its start.

The first assay addresses T1, AFP158/HLA-A*02:01 complex (human).
T1 construct: flowed over the chip in SPR; also called AFP158 pro
Kind of assay: SPR, scFv captured, pMHC in flow.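 Note: complex injected at several concentrations over crude scFv, association then running-buffer dissociation, KD estimated from kinetic on- and off-rate constants.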
Experimental: (§1) The experiment was carried out as follows. The crude scFv protein were captured onto the sensorchip. Different concentrations (320, 160, 40 nM) of AFP158/HLA-A*02:01 complex flowed over the sensorchip surface, and were allowed to bind the antibody fragment for 100 s followed by injection of the running buffer to allow dissociation of the complex. On-rate (kd) and off-rate (kd) were calculated based on association and dissociation curve, and were used to estimate the equilibrium dissociation constant (KD).
In turn, B1 gave a Kd of 650 nM.
The molecule B2 came in with a Kd of 690 nM.
Still for that read-out and setting: as for B3, the figure is 660 nM; as for B4, 580 nM; as for B5, 790 nM.
The molecule B6 showed a Kd of 590 nM. This Kd and that of the molecule before are within 1.5-fold of each other.
Same read-out and setting: as for B7, the figure is 640 nM.

Another assay concerns the target T2, AFP158/HLA-A*02:01 complex (human).
T2 construct: biotinylated on the BSP by BirA for ELISA and panning; also called biotinylated AFP158/HLA-A*02:01 complex; Bio-AFP158
Kind of assay: SPR; vs AS170036 VL1VH1. (In general: SPR reads the build-up and loss of mass on a sensor chip optically.)
The molecule B8 registered an Affinity increase of 0.9 fold.
Same read-out and setting: for B9 the value was 1.3 fold; for B10, 0.1 fold; for B11, 0.1 fold.
B12 yielded an Affinity increase of 0.4 fold.
The same measure, in the same setting: as for B13, the figure is 1.2 fold; as for B14, 0.2 fold; as for B15, 0.6 fold.
Still for that read-out and setting: for B16 the value was 1.1 fold; for B17, 0.1 fold.
Same read-out and setting: as for B18, the figure is 1.5 fold.
Molecule B19 registered an Affinity increase of 0.5 fold.
In the case of B20, the Affinity increase was 1.2 fold.
Molecule B21 registered an Affinity increase of 0.9 fold.
As to B22, the Affinity increase was determined as 1.2 fold.
On the same count and under the same terms, for B23 the value was 0.2 fold.
Still for that read-out and setting: as for B24, the figure is 1 fold; as for B25, 0.3 fold.
Regarding B26, the Affinity increase was 0.2 fold.
Same read-out and setting: for B27 the value was 0.2 fold.
The molecule B28 displayed an Affinity increase of 0.1 fold.
B29 registered an Affinity increase of 0.5 fold.
On the same count and under the same terms, for B30 the value was 1.4 fold; for B31, 0.2 fold.
Still for that read-out and setting: as for B32, the figure is 0.4 fold.
Same read-out and setting: for B33 the value was 0.8 fold; for B34, 0.2 fold; for B35, 1.3 fold.
Regarding B36, the Affinity increase was 0.2 fold.
On to B37, for which the Affinity increase worked out at 0.2 fold.
Still for that read-out and setting: for B38 the value was 0.2 fold; for B39, 0.2 fold.
Still for that read-out and setting: for B40 the value was 0.3 fold; for B41, 1.8 fold; for B42, 0.3 fold.
Still for that read-out and setting: for B43 the value was 0.1 fold; for B44, 0.6 fold.

A further assay has as its target T2, AFP158/HLA-A*02:01 complex. Kind of assay: SPR, crude scFv captured.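 Note: Peptide–MHC complex flowed at several concentrations over sensorchip-captured scFv, Kd derived from on- and off-rates obtained from the association and dissociation curves.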
Experimental: as §1
B8 showed a Kd of 320 nM.
Same read-out and setting: for B9 the value was 210 nM; for B10, 4500 nM.
The molecule B11 gave a Kd of 5400 nM. This Kd and that of the molecule before are within 1.5-fold of each other.
Same read-out and setting: for B12 the value was 750 nM; for B13, 200 nM.
For the molecule B14, the dissociation constant (Kd) amounted to 1200 nM.
The same measure, in the same setting: for B15 the value was 400 nM.
On the same count and under the same terms, for B16 the value was 220 nM; for B17, 3500 nM; for B18, 170 nM.
Still for that read-out and setting: as for B19, the figure is 500 nM.
B20: binding was put at a Kd of 200 nM.
In the case of B21, the Kd was determined as 300 nM.
For the molecule B22, the affinity, expressed as Kd, was 210 nM.
On the same count and under the same terms, for B23 the value was 1200 nM; for B24, 260 nM.
For the molecule B25, the Kd turned out to be 1000 nM.
The same measure, in the same setting: for B26 the value was 1500 nM.
As to B27, the Kd came out at 1500 nM.
The molecule B28 registered a Kd of 2700 nM. Compared with the last molecule, the Kd is about 1.8-fold higher.
In turn, B29 showed a dissociation constant Kd of 540 nM.
The same measure, in the same setting: for B30 the value was 180 nM; for B31, 1500 nM.
B32: the Kd amounted to 650 nM.
Same read-out and setting: for B33 the value was 300 nM; for B34, 1500 nM.
On the same count and under the same terms, as for B35, the figure is 180 nM; as for B36, 1200 nM; as for B37, 1400 nM.
In turn, B38 yielded a Kd of 1200 nM.
Same read-out and setting: as for B39, the figure is 1200 nM.
On the same count and under the same terms, for B40 the value was 780 nM; for B41, 150 nM; for B42, 860 nM.
Same read-out and setting: for B43 the value was 2700 nM.
B44 had a Kd of 380 nM. This Kd is about 7.1-fold lower than that of the molecule before.

The target in the next assay is T1, AFP158/HLA-A*02:01 complex. The assay can be described thus: SPR, KD ratio to AS170036 VL1VH1.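 Note: crude scFv captured on a sensor chip, peptide–HLA complex passed over at several concentrations, association then buffer dissociation, KD derived from on- and off-rates.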
With B1, the Affinity increase came to 0.4 fold.
On the same count and under the same terms, for B2 the value was 0.4 fold; for B3, 0.4 fold.
Take B4: the Affinity increase worked out at 0.4 fold.
For B5, the Affinity increase came to 0.3 fold.
Same read-out and setting: as for B6, the figure is 0.4 fold.
For the molecule B7, the Affinity increase was 0.4 fold.

As usually defined, the Kd is the free concentration of one partner at which half of the binding sites on the other are occupied at equilibrium, for simple one-to-one binding. A low value points to higher affinity.
